From the RNAGym collection of RNA variant scans (doi:10.1073/pnas.2313332121) come the findings set out here.

Sequences and labels used below:
B1: TPR t1 (parent)
chain: GACCAAUCUGCCCUCAGAGCUCGAGAACAUCUUCGGAUGCAGAGGAGGCAGGCUUCGGUGGCGCGAUAGCGCCAACGUCCUCAACCUCCAAUGCAUCCCACCACAUGAUGAUGCCUGAAGAGCCUUGGUUUUUUG

The data set covers variants of B1. Nature of the data set: polymerase ribozyme fitness, log enrichment relative to wild type (log ratio); higher = more active; in vitro selection for triplet polymerase activity. The essentials:
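Mutant libraries for each subunit of a heterodimeric triplet polymerase ribozyme were made by PCR and then transcribed. Each library underwent one round of in vitro selection in triplicate: annealing with a biotinylated primer, the partner subunit and triplets, frozen incubation at −7 °C, gel excision of extended constructs, streptavidin-bead capture and RT-PCR. Input and output libraries were Illumina-sequenced, and only genotypes with ≥10 input reads and ≥1 read per output were kept. Fitness is the logarithm, base 2, of genotype enrichment over wild-type enrichment, computed from inverse-variance-weighted replicate averages.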
As for C8U C101U, the “polymerase ribozyme fitness (log ratio)” value stood at 0.244.

As for C40G C123G, the “polymerase ribozyme fitness (log ratio)” value was found to be 0.299.

C62A C123G: the “polymerase ribozyme fitness (log ratio)” value came to 0.748.

With C11G A29U, the “polymerase ribozyme fitness (log ratio)” value was -1.95.

Take A27U C70U: the “polymerase ribozyme fitness (log ratio)” value was -3.44.

As for C62G G113U, the “polymerase ribozyme fitness (log ratio)” value is -4.24.

As for C62A U81G G120A, the “polymerase ribozyme fitness (log ratio)” value was -4.65.

Regarding C49G C73A C85U C89A, the “polymerase ribozyme fitness (log ratio)” value was -2.43.

For C20U A90U C123U, the “polymerase ribozyme fitness (log ratio)” value was -1.5.

As for C3U G61U C80G, the “polymerase ribozyme fitness (log ratio)” value is -5.52.

On to A43C G58A U78A C114A, for which the “polymerase ribozyme fitness (log ratio)” value is -5.29.

C13U A16C C101G: the “polymerase ribozyme fitness (log ratio)” value was -2.83.

G52U A103U: the “polymerase ribozyme fitness (log ratio)” value is -6.74.

On to U7A A16C, for which the “polymerase ribozyme fitness (log ratio)” value was -0.994.

For G45A U67A C102A G120A, the “polymerase ribozyme fitness (log ratio)” value was -6.86.

As to G10U G60U U112A C114U, the “polymerase ribozyme fitness (log ratio)” value is -1.17.

C34U G61C: the “polymerase ribozyme fitness (log ratio)” value is -4.48.

In the case of A6C C72U G120U U133A, the “polymerase ribozyme fitness (log ratio)” value is -0.162.

For the variant C8G C22G C53U C70U A84C, the “polymerase ribozyme fitness (log ratio)” value was -3.45.

For G44C G47A G61U U133A, the “polymerase ribozyme fitness (log ratio)” value was -1.13.

As to C22G G60C A95C A121U, the “polymerase ribozyme fitness (log ratio)” value was -2.32.

Regarding G48C G71A G110A G120A, the “polymerase ribozyme fitness (log ratio)” value was -3.66.

In the case of A46U C70A, the “polymerase ribozyme fitness (log ratio)” value was -2.18.

As for A16U U106A, the “polymerase ribozyme fitness (log ratio)” value is -2.08.

As for A5C A24G G48U G69U G110A C124U U131C, the “polymerase ribozyme fitness (log ratio)” value is -2.03.

G42U C82G C115G: the “polymerase ribozyme fitness (log ratio)” value is -3.58.

On to C56U U109A, for which the “polymerase ribozyme fitness (log ratio)” value is -5.25.

In the case of C11A G61U, the “polymerase ribozyme fitness (log ratio)” value is -1.39.

Regarding C49A G57A, the “polymerase ribozyme fitness (log ratio)” value was -1.5.

C40G U81A: the “polymerase ribozyme fitness (log ratio)” value was -2.17.

Consider G10C A37U A84G C85A C94U C101G, for which the “polymerase ribozyme fitness (log ratio)” value is -4.54.

Regarding A2U C4U G61U C101A G127C, the “polymerase ribozyme fitness (log ratio)” value is -3.03.

Consider G10U G17U G45U C104U C124A, for which the “polymerase ribozyme fitness (log ratio)” value was -1.08.

For the variant C40G A100U C101A, the “polymerase ribozyme fitness (log ratio)” value is -3.4.

As to A27U C79A, the “polymerase ribozyme fitness (log ratio)” value was -3.85.

As for C12U A27U C40A U78G U109A C123U U130C, the “polymerase ribozyme fitness (log ratio)” value is -3.99.

G23U G117A: the “polymerase ribozyme fitness (log ratio)” value is -6.33.

Take C85G U96G A105U: the “polymerase ribozyme fitness (log ratio)” value was -4.68.

Consider A83U A91C, for which the “polymerase ribozyme fitness (log ratio)” value is -0.743.

As for U9G A37U C40U G45A C104U, the “polymerase ribozyme fitness (log ratio)” value is -0.895.

With G36A G60A C85U C124G, the “polymerase ribozyme fitness (log ratio)” value came out at 0.468.

On to C40G A84U, for which the “polymerase ribozyme fitness (log ratio)” value is -1.56.

With G17A C115U U116C, the “polymerase ribozyme fitness (log ratio)” value is -6.73.

For the variant G17U U106A, the “polymerase ribozyme fitness (log ratio)” value was -2.49.

For A27U C73U U131G, the “polymerase ribozyme fitness (log ratio)” value is -1.71.

On to G47A C73A, for which the “polymerase ribozyme fitness (log ratio)” value is -0.495.

On to G57U G117U, for which the “polymerase ribozyme fitness (log ratio)” value is -2.86.

With G19U C89G, the “polymerase ribozyme fitness (log ratio)” value is -4.36.

Take A41C G63A G69U G93C C101A: the “polymerase ribozyme fitness (log ratio)” value is -4.78.

As to U96C G110A, the “polymerase ribozyme fitness (log ratio)” value is -0.613.

Consider C11G C12G C56A A118G, for which the “polymerase ribozyme fitness (log ratio)” value was -0.95.

On to U109A C114U A121C, for which the “polymerase ribozyme fitness (log ratio)” value was -4.32.

On to C20A A26G G110U, for which the “polymerase ribozyme fitness (log ratio)” value was -4.8.

Regarding G113U G120C G128U, the “polymerase ribozyme fitness (log ratio)” value is -4.07.

As for C15U C64G A90C C114U G128A, the “polymerase ribozyme fitness (log ratio)” value was -6.98.

For C11U G19U C20A C104U G120U, the “polymerase ribozyme fitness (log ratio)” value is -4.29.

Consider C64U C70A A111C C115G G128U, for which the “polymerase ribozyme fitness (log ratio)” value was -5.81.

With A24G C73G G120A, the “polymerase ribozyme fitness (log ratio)” value is -2.15.

For the variant C3U C15G C72A, the “polymerase ribozyme fitness (log ratio)” value is -3.04.

As for A43U G69A, the “polymerase ribozyme fitness (log ratio)” value is -5.69.

G42A A46U G48A A66C A118U: the “polymerase ribozyme fitness (log ratio)” value was -5.21.

Consider C12U C79A U106C, for which the “polymerase ribozyme fitness (log ratio)” value was -1.41.

Regarding C56A U109A, the “polymerase ribozyme fitness (log ratio)” value was -5.84.

Regarding C88U C99U, the “polymerase ribozyme fitness (log ratio)” value was -2.42.

Take A29G A90C: the “polymerase ribozyme fitness (log ratio)” value is -2.34.

On to C8G G60U C85G A108U U131A, for which the “polymerase ribozyme fitness (log ratio)” value is -5.69.

With C34U C62G, the “polymerase ribozyme fitness (log ratio)” value is -6.83.

As to C3U A27C G58C C64A G93U C101A G113A C115G, the “polymerase ribozyme fitness (log ratio)” value is -7.47.

Consider G47A C53G C85A C89A A91C C94A U116C G120C, for which the “polymerase ribozyme fitness (log ratio)” value is -5.21.

For U7G A16G A18C G117U, the “polymerase ribozyme fitness (log ratio)” value is -0.355.

Consider C13A A16G U133G, for which the “polymerase ribozyme fitness (log ratio)” value is -2.57.

Regarding C15G C82G G117U U130C, the “polymerase ribozyme fitness (log ratio)” value is -0.86.

On to C15A C22U C62G A83U C98A C123A U125A, for which the “polymerase ribozyme fitness (log ratio)” value was -6.9.

Consider U32A G44A U87C, for which the “polymerase ribozyme fitness (log ratio)” value was -5.32.

In the case of G48A C56U U59C C86A C94A A111C, the “polymerase ribozyme fitness (log ratio)” value is -5.39.

On to G44U G117A, for which the “polymerase ribozyme fitness (log ratio)” value is -2.13.

Consider G44A C72A C98U G110A, for which the “polymerase ribozyme fitness (log ratio)” value was -4.64.

On to G48A G63U G113A, for which the “polymerase ribozyme fitness (log ratio)” value was -2.17.

C8U C11G G48C C56U C64U C89U G117U: the “polymerase ribozyme fitness (log ratio)” value was -5.48.

For G25C G69U A111U, the “polymerase ribozyme fitness (log ratio)” value is -7.

As to U59G A68G, the “polymerase ribozyme fitness (log ratio)” value was -3.01.

With G39U C73U C99U, the “polymerase ribozyme fitness (log ratio)” value was -4.75.

As for U14G C40G C73A A105U, the “polymerase ribozyme fitness (log ratio)” value was -4.25.
